Earlier results in PMC9331257.
Values belong to the substance of their own block, whether it stands above or below them.

Tests used:
[1] = target: PACAP type II receptor (Homo sapiens) (UniProt P32241); experiment: radioligand binding
PAC1R (Homo sapiens) [2] = target: PAC1R (Homo sapiens) (UniProt P41586); experiment: radioligand binding
VPAC1R (Homo sapiens) = VPAC1R (Homo sapiens) (UniProt P32241); experiment: [125I]VIP displacement
PAC1R (Homo sapiens) [3] = target: PAC1R (Homo sapiens) (UniProt P41586); experiment: [125I]Ac-His1-PACAP27 displacement
VPAC2R (Homo sapiens) = VPAC2R (Homo sapiens) (UniProt P41587); experiment: [125I]Ac-His1-PACAP27 displacement
UniProt P41587, sequence (P41587 24-438): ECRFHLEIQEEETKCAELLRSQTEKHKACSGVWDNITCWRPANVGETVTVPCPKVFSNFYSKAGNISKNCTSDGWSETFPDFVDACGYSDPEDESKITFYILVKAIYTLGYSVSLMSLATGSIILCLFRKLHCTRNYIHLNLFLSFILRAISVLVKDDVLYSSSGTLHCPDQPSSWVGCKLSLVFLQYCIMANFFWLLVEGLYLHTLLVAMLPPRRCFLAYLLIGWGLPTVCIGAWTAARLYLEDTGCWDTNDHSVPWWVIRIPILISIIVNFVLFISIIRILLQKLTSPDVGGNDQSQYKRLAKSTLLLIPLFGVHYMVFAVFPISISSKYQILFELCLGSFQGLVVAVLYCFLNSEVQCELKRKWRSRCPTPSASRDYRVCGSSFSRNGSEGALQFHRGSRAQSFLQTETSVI

[4] = target: PACAP type II receptor (Homo sapiens) (UniProt P32241); experiment: radioligand
PAC1R (Homo sapiens) [5] = target: PAC1R (Homo sapiens) (UniProt P41586); experiment: radioligand

UniProt P41586, sequence (P41586 21-468): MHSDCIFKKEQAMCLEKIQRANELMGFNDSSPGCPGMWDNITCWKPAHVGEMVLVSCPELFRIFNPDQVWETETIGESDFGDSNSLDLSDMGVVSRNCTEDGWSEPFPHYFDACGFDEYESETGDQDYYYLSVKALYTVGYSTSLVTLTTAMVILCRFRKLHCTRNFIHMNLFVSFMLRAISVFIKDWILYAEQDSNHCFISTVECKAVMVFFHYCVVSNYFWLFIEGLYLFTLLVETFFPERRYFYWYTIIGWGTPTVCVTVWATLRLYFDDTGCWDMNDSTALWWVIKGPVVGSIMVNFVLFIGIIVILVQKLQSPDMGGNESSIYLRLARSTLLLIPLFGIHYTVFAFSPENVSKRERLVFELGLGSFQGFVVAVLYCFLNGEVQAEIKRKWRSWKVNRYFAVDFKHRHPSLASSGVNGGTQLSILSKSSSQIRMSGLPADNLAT
VIP, sequence (P01282 125-152): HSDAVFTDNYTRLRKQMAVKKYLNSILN
PACAP, sequence (P18509 82-129): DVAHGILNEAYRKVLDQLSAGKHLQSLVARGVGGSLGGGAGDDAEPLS

Kd [1]: 0.5 nM | Kd (PAC1R (Homo sapiens) [2]): 0.5 nM
Substance: PACAP (from UniProt P18509)

Ki (VPAC1R (Homo sapiens)): 600 nM | Ki (PAC1R (Homo sapiens) [3]): 30 nM | Ki (VPAC2R (Homo sapiens)): 40 nM
Substance: PACAP(6-38) 6-38 (from UniProt P18509)

Kd [4]: 0.5 nM | Kd (PAC1R (Homo sapiens) [5]): > 500 nM
Substance: VIP (from UniProt P01282)
